This is an account of results in patent US20220177587A1, “METHODS AND USES OF VARIANT CD80 FUSION PROTEINS AND RELATED CONSTRUCTS” (Alpine Immune Sciences, Inc., priority 2018, published 2022).

In assay [1] the target is CD28 (human) (UniProt P10747).
The target of assay [2] is PD-L1 (human) (UniProt Q9NZQ7).
Target sequence in this assay (Q9NZQ7 19-290): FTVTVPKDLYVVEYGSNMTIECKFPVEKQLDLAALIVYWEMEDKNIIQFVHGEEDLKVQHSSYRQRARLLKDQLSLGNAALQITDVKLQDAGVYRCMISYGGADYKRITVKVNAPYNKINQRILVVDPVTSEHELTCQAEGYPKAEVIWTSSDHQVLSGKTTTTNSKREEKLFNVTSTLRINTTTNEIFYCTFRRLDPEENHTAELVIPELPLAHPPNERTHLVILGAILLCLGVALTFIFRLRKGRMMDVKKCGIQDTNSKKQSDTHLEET
In assay [3] the target is CD28 (human) (UniProt P10747). This is another data set of the same source.
Assay [4] deals with PD-L1 (human) (UniProt Q9NZQ7). The experiment in a line: flow cytometry, Expi293F cells transfected with PD-L1.
The target in assay [5] is human CTLA-4 (human) (UniProt P16410). In words: flow cytometry, Expi293F cells transfected with CTLA-4.
For assay [6], the target named is CD28 (human) (UniProt P10747). In words: flow cytometry, Expi293F cells transfected with CD28. In general terms: In flow cytometry, cells or beads pass a laser one at a time.

With “CD80 A71D/L72V/E95K IgV-Fc (effector) (Fc fusion)”, in assay [1], the IL-2 release, primary T cells + K562/OKT3 (No PD-L1), 100 nM was determined as 21300. Also, in assay [2], the Jurkat/IL2 reporter RLU at 50 nM, K562/OKT3/PD-L1 aAPC came to 4030 RLU. Further, in assay [3], the Jurkat/IL2 reporter RLU at 50 nM, K562/OKT3/PD-L1 aAPC was determined as 4030 RLU and the Jurkat/IL2 reporter RLU at 50 nM, K562/OKT3 aAPC without PD-L1 worked out at 7110 RLU.
With “CD80 A26E/E35D/M47L/L85Q IgV-Fc (effector) (Fc fusion)”, the Jurkat/IL2 reporter RLU at 50 nM, K562/OKT3/PD-L1 aAPC in assay [2] stood at 2640 RLU. In addition, in assay [3], the Jurkat/IL2 reporter RLU at 50 nM, K562/OKT3/PD-L1 aAPC was 2640 RLU and the Jurkat/IL2 reporter RLU at 50 nM, K562/OKT3 aAPC without PD-L1 amounted to 1330 RLU.
As for “CD80 E35D/M43L/L70M IgV-Fc (effector) (Fc fusion)”, the IL-2 release, primary T cells + K562/OKT3 (No PD-L1), 100 nM in assay [1] came out at 10500. The same substance showed a Jurkat/IL2 reporter RLU at 50 nM, K562/OKT3/PD-L1 aAPC in assay [2] of 2780 RLU. In assay [3], this substance displayed a Jurkat/IL2 reporter RLU at 50 nM, K562/OKT3/PD-L1 aAPC of 2780 RLU and a Jurkat/IL2 reporter RLU at 50 nM, K562/OKT3 aAPC without PD-L1 of 1570 RLU.
For “CD80 E35D/M47L IgV-Fc (effector) (Fc fusion)”, in assay [1], the IL-2 release, primary T cells + K562/OKT3 (No PD-L1), 100 nM turned out to be 26800. For the same substance, in assay [2], the Jurkat/IL2 reporter RLU at 50 nM, K562/OKT3/PD-L1 aAPC was 5040 RLU. Further, in assay [3], the Jurkat/IL2 reporter RLU at 50 nM, K562/OKT3/PD-L1 aAPC came to 5040 RLU and the Jurkat/IL2 reporter RLU at 50 nM, K562/OKT3 aAPC without PD-L1 came out at 8680 RLU.
Take “CD80 R29H/E52G/L70R/E88G/A91G/T130A ECD-Fc (Fc fusion)”: the figures for the MFI in assay [4], in assay [5] and in assay [6] were 5 MFI, 119 MFI and 100 MFI, respectively. Besides, the parental ratio in assay [4] amounted to 0.08; in assay [5], 0.57.
For the substance “CD80 E35G/K54E/A71D/L72P IgV-Fc (effector) (Fc fusion)”, the Jurkat/IL2 reporter RLU at 50 nM, K562/OKT3/PD-L1 aAPC in assay [2] worked out at 805 RLU. In assay [3], this substance gave a Jurkat/IL2 reporter RLU at 50 nM, K562/OKT3/PD-L1 aAPC of 805 RLU and a Jurkat/IL2 reporter RLU at 50 nM, K562/OKT3 aAPC without PD-L1 of 1510 RLU.
Take CD80 E35D IgV-Fc (effector) (Fc fusion): in assay [1], the IL-2 release, primary T cells + K562/OKT3 (No PD-L1), 100 nM was 8380. The Jurkat/IL2 reporter RLU at 50 nM, K562/OKT3/PD-L1 aAPC in assay [2] and in assay [3] was 2270 RLU throughout. In assay [3], this substance gave a Jurkat/IL2 reporter RLU at 50 nM, K562/OKT3 aAPC without PD-L1 of 1200 RLU.
Turning to “CD80 E35D/D46V/L85Q IgV-Fc (effector) (Fc fusion)”, the IL-2 release, primary T cells + K562/OKT3 (No PD-L1), 100 nM in assay [1] was 25400. In assay [2], this substance had a Jurkat/IL2 reporter RLU at 50 nM, K562/OKT3/PD-L1 aAPC of 4130 RLU. Moreover, in assay [3], the Jurkat/IL2 reporter RLU at 50 nM, K562/OKT3/PD-L1 aAPC came to 4130 RLU and the Jurkat/IL2 reporter RLU at 50 nM, K562/OKT3 aAPC without PD-L1 was determined as 7020 RLU.
Turning to “CD80 K54M/L70Q/A91G/Y164H ECD-Fc (SEQ ID NO 1399) (Fc fusion)”, the figures for the MFI in assay [4], in assay [5] and in assay [6] were 5 MFI, 131 MFI and 68 MFI, respectively. Further, the parental ratio in assay [4] amounted to 0.08; in assay [5], 0.63; in assay [6] it was 0.71.
As to WT CD80 IgV-Fc (Fc fusion), the Jurkat/IL2 reporter RLU at 50 nM, K562/OKT3/PD-L1 aAPC in assay [2] and in assay [3] was 663 RLU in each case. This substance showed a Jurkat/IL2 reporter RLU at 50 nM, K562/OKT3 aAPC without PD-L1 in assay [3] of 1250 RLU.
As to “CD80 T28S/L70Q/A91G/E95K/I118V/T120S/I126V/T130A/K169E ECD-Fc (Fc fusion)”, the MFI in assay [4] is 6 MFI; in assay [5] it was 65 MFI; in assay [6], 32 MFI. Further, the parental ratio in assay [4] came to 0.08; in assay [5] it was 0.31; in assay [6], 0.34.
Regarding “CD80 E23G/A26S/E35D/T62N/A71D/L72V/L85M IgV-Fc (effector) (Fc fusion)”, in assay [1], the IL-2 release, primary T cells + K562/OKT3 (No PD-L1), 100 nM was found to be 27000. Also, the Jurkat/IL2 reporter RLU at 50 nM, K562/OKT3/PD-L1 aAPC in assay [2] and in assay [3] was 4140 RLU in each case. Besides, in assay [3], the Jurkat/IL2 reporter RLU at 50 nM, K562/OKT3 aAPC without PD-L1 was 7860 RLU.
Regarding “CD80 V20L/L70Q/A91S/I118V/T120S/T130A ECD-Fc (Fc fusion)”, the values for the MFI in assay [4], in assay [5] and in assay [6] were 9 MFI, 200 MFI and 105 MFI, respectively. Moreover, the parental ratio in assay [4] stood at 0.13; in assay [5], 0.96.
